From article PMC7954662 (Science (New York, N.Y.), 2020)

Molecular target: Human GCGR (Q27-F477) with N-terminal FLAG and C-terminal octahistidine tag (human, UniProt P47871 27-477)
Experiment: cryo-EM structure

Sequence of Human GCGR (Q27-F477) with N-terminal FLAG and C-terminal octahistidine tag (P47871 27-477): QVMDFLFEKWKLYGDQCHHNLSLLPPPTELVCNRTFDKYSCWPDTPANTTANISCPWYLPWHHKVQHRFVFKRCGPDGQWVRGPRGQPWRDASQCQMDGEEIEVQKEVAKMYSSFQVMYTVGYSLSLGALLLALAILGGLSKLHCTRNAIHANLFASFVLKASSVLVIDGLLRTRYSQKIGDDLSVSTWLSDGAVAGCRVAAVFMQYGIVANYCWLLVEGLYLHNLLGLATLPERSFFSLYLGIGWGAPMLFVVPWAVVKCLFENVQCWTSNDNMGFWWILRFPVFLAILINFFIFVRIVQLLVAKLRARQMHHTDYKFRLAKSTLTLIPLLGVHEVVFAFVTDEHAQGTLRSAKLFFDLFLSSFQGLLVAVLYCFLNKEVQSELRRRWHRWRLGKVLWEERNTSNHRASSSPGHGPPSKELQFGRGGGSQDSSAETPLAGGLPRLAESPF

binding result: binds
B1: Gαs (human, short splice variant), subunit of the Gs heterotrimer (natural protein)
chain: MGCLGNSKTEDQRNEEKAQREANKKIEKQLQKDKQVYRATHRLLLLGAGESGKSTIVKQMRILHVNGFNGDSEKATKVQDIKNNLKEAIETIVAAMSNLVPPVELANPENQFRVDYILSVMNVPDFDFPPEFYEHAKALWEDEGVRACYERSNEYQLIDCAQYFLDKIDVIKQADYVPSDQDLLRCRVLTSGIFETKFQVDKVNFHMFDVGGQRDERRKWIQCFNDVTAIIFVVASSSYNMVIREDNQTNRLQEALNLFKSIWNNRWLRTISVILFLNKQDLLAEKVLAGKSKIEDYFPEFARYTTPEDATPEPGEDPRVTRAKYFIRDEFLRISTASGDGRHYCYPHFTCAVDTENIRRVFNDCRDIIQRMHLRQYELL
